Measurements as given in US20230093399A1, “METHODS FOR GENERATING PLURIPOTENT STEM CELL-DERIVED BROWN FAT CELLS” (AgeX Therapeutics, Inc., priority 2013, published 2023).

System: cell line E163
Assay: Differentiation of cell line E163 in HyStem, gene expression
Assay type: cell-based, human
Settings: E163 passage 12; 21 days in HyStem with 10 ng/mL BMP4
Description: HyStem-C (BioTime, Inc. Alameda, Calif.) (BioTime, Alameda, Calif., USA) was reconstituted following the manufacturer's instructions. Briefly, the HyStem component (thiol modified hyaluronan, 10 mg) was dissolved in 1.0 ml degassed deionized water for about 20 minutes to prepare a 1% w/v solution. The Gelin-S component (thiol modified gelatin, 10 mg) was dissolved in 1 ml degassed deionized water to prepare a 1% w/v solution, and PEGDA (PEG diacrylate, 10 mg) was dissolved in 0.5 ml degassed deionized water to prepare a 2% w/v solution. HyStem (1 ml, 1% w/v) was mixed with Gelin-S (1 ml, 1% w/v) immediately before use. Pelleted cells were resuspended in recently prepared HyStem:Gelin-S (1:1 v/v) mix described above. Upon the addition of crosslinker PEGDA, the cell suspension, at a final concentration of 2.0×10^7 cells/ml, was aliquoted at 25 μl aliquot four to five times into each well of 6 well plates (Corning 3516) after partial gelation to form attached beads. Following complete gelation (20 minutes), chondrogenic medium was added to each well (i.e about 4 ml/each well of a 6 well plate). […]

B1: BMP4: Bone Morphogenetic Protein 4, TGF-beta superfamily member (protein, UniProt P12644 293-408, looked up)
Bone morphogenetic protein 4: SPKHHSQRARKKNKNCRRHSLYVDFSDVGWNDWIVAPPGYQAFYCHGDCPFPLADHLNSTNHAIVQTLVNSVNSSIPKACCVPTELSAISMLYLDEYDKVVLKNYQEMVVEGCGCR
- adipocyte markers FABP4 and CD36 and candidate BAT cell progenitor markers such as C19orf80: relatively high levels
